Experimental data reported in publication PMC11445458.
“And” between values parts separate entries of the source, which are not always exact repeats. Identical values can stand only once.

Columns and labels:
[1] = target: receptor binding protein (gp54) of bacteriophage JBD30 (bacteriophage JBD30 (Casadabanvirus JBD30)); experiment: cryo-EM structure; single-particle reconstructions (icosahedral, C5, C12, C6, C3, asymmetric, localized) of purified JBD30 virions and empty particles in phage buffer (10 mM MgSO4, 10 mM NaCl, 50 mM Tris pH 8); native assembly
[2] = target: portal protein (gp32) of bacteriophage JBD30 (bacteriophage JBD30 (Casadabanvirus JBD30)); experiment: as above
[3] = target: portal protein (gp32) of bacteriophage JBD30 (bacteriophage JBD30 (Casadabanvirus JBD30)); experiment: cryo-EM structure; single-particle reconstruction of JBD30 procapsids found in the purified phage sample (icosahedral, C5, localized C12 portal)
[4] = target: major tail protein (gp44) of bacteriophage JBD30 (bacteriophage JBD30 (Casadabanvirus JBD30)); experiment: cryo-EM structure; single-particle reconstructions (icosahedral, C5, C12, C6, C3, asymmetric, localized) of purified JBD30 virions and empty particles in phage buffer (10 mM MgSO4, 10 mM NaCl, 50 mM Tris pH 8); native assembly
[5] = target: distal tail protein (gp49) of bacteriophage JBD30 (bacteriophage JBD30 (Casadabanvirus JBD30)); experiment: as above
[6] = target: major capsid protein (gp38) of bacteriophage JBD30 (bacteriophage JBD30 (Casadabanvirus JBD30)); experiment: as above
[7] = target: major capsid protein (gp38) of bacteriophage JBD30 (bacteriophage JBD30 (Casadabanvirus JBD30)); experiment: cryo-EM structure; single-particle reconstruction of JBD30 procapsids found in the purified phage sample (icosahedral, C5, localized C12 portal)
[8] = target: baseplate hub protein (gp53) of bacteriophage JBD30 (bacteriophage JBD30 (Casadabanvirus JBD30)); experiment: cryo-EM structure; single-particle reconstructions (icosahedral, C5, C12, C6, C3, asymmetric, localized) of purified JBD30 virions and empty particles in phage buffer (10 mM MgSO4, 10 mM NaCl, 50 mM Tris pH 8); native assembly
[9] = target: minor capsid protein (gp39) of bacteriophage JBD30 (bacteriophage JBD30 (Casadabanvirus JBD30)); experiment: as above
[10] = target: adaptor protein (gp41) of bacteriophage JBD30 (bacteriophage JBD30 (Casadabanvirus JBD30)); experiment: as above
[11] = target: tape measure protein (gp46) of bacteriophage JBD30 (bacteriophage JBD30 (Casadabanvirus JBD30)); experiment: as above
[12] = target: stopper protein (gp42) of bacteriophage JBD30 (bacteriophage JBD30 (Casadabanvirus JBD30)); experiment: as above

“receptor binding protein (gp54) of bacteriophage JBD30 (natural protein)” gave a stoichiometry N [1] of 3.
With “portal protein (gp32) of bacteriophage JBD30 (natural protein)” the stoichiometry N [2] was 12 and the stoichiometry N [3] was 12.
In the case of “major tail protein (gp44) of bacteriophage JBD30 (natural protein)”, the stoichiometry N [4] is reported as 6.
For “distal tail protein (gp49) of bacteriophage JBD30 (natural protein)”, the stoichiometry N [5] was 3.
With “major capsid protein (gp38) of bacteriophage JBD30 (natural protein)” the stoichiometry N [6] was 5 and 6 and the stoichiometry N [7] was 5 and 6.
Substance “baseplate hub protein (gp53) of bacteriophage JBD30 (natural protein)” has a stoichiometry N [8] of 3.
“minor capsid protein (gp39) of bacteriophage JBD30 (natural protein)” gave a stoichiometry N [9] of 3.
For “adaptor protein (gp41) of bacteriophage JBD30 (natural protein)”, the stoichiometry N [10] was 12.
With “tape measure protein (gp46) of bacteriophage JBD30 (natural protein)” the stoichiometry N [11] was 3.
Work on “stopper protein (gp42) of bacteriophage JBD30 (natural protein)” yielded a stoichiometry N [12] of 6.
